In publication PMC9299187:
Like-named read-outs stand apart in the source and are kept apart here.

How the values were obtained:
[1] = molecular target: Chimera‐Long (human DHFR‐TYMS bifunctional chimeric enzyme with 20 amino acid linker) (human); experiment: SEC; Superdex 200 10/300, 0.1 M K-phosphate pH 7.5, calibrated with protein standards; IMAC fractions of the Chimera constructs
[2] = molecular target: Chimera‐Short (human DHFR‐TYMS bifunctional chimeric enzyme with 10 amino acid linker) (human); experiment: as above
[3] = molecular target: Chimera‐Long (human DHFR‐TYMS bifunctional chimeric enzyme with 20 amino acid linker) (human); experiment: SPR; Chimera-Long amine-coupled on a COOH2 chip (735 RU on Ch1, 175 RU on Ch3), SHMT1 as analyte 2.66-85 uM, 25 °C, 10 mM Hepes pH 7.4, 150 mM NaCl, 0.005% Tween-20; 1 : 1 bimolecular interaction model
[4] = molecular target: Chimera‐Long (human DHFR‐TYMS bifunctional chimeric enzyme with 20 amino acid linker) (human); experiment: as above; remark: listed apart in the source
[5] = molecular target: Chimera‐Long (human DHFR‐TYMS bifunctional chimeric enzyme with 20 amino acid linker) (human); experiment: BLI; Chimera held by mouse anti-DHFR on a Protein-A biosensor, SHMT1 as analyte 1-30 uM, kinetic titration series, kinetic buffer, 25 °C; two-exponential fit, heterogeneous binding model with two binding events

“Chimera‐Long (human DHFR‐TYMS bifunctional chimeric enzyme with 20 amino acid linker)” gave a stoichiometry N [1] of 2.

“Chimera‐Short (human DHFR‐TYMS bifunctional chimeric enzyme with 10 amino acid linker)” gave a stoichiometry N [2] of 2.

B1: serine hydroxymethyltransferase (SHMT1), purified recombinant, tetrameric (enzyme)
chain: DADLWSSHDKMLAQPLKDSDVEVYNIIKKESNRQRVGLELIASENFASRAVLEALGSCLNNKYSEGYPGQRYYGGTEFIDELETLCQKRALQAYKLDPQCWGVNVQPYSGSPANFAVYTALVEPHGRIMGLDLPDGGHLTHGFMTDKKKISATSIFFESMPYKVNPDTGYINYDQLEENARLFHPKLIIAGTSCYSRNLEYARLRKIADENGAYLMADMAHISGLVAAGVVPSPFEHCHVVTTTTHKTLRGCRAGMIFYRKGVKSVDPKTGKEILYNLESLINSAVFPGLQGGPHNHAIAGVAVALKQAMTLEFKVYQHQVVANCRALSEALTELGYKIVTGGSDNHLILVDLRSKGTDGGRAEKVLEACSIACNKNTCPGDRSALRPSGLRLGTPALTSRGLLEKDFQKVAHFIHRGIELTLQIQSDTGVRATLKEFKERLAGDKYQAAVQALREEVESFASLFPLPGL
B1 was tested, and the Kd [3] was 2.5 µM, the koff [3] was 0.0025 s⁻¹ and the kon [3] was 470 M⁻¹ s⁻¹. It also gave a Kd [4] of 2.9 µM, a KD, binding 1 [5] of 16.4 µM and a KD, binding 2 [5] of 13.5 µM. For the same molecule, the koff, binding 1 [5] was 0.2 s⁻¹, the koff, binding 2 [5] was 0.02 s⁻¹ and the kon, binding 1 [5] was 14000 M⁻¹ s⁻¹. The kon, binding 2 [5] was 1600 M⁻¹ s⁻¹.
